Laboratory results from CN114907478A (MABWELL SHANGHAI BIOSCIENCE CO LTD, dated 2022).
Where a chain is given by its changes, count along the chain named.

T1: hLAG-3-mFc融合蛋白 (human, UniProt P18627 23-450)
T1 construct: range 1-450; no cleavage site is stated; also called hLAG-3-mFc重组蛋白; 人LAG-3-mFc重组蛋白; not shown: mouse Fc
T1 sequence (looked up): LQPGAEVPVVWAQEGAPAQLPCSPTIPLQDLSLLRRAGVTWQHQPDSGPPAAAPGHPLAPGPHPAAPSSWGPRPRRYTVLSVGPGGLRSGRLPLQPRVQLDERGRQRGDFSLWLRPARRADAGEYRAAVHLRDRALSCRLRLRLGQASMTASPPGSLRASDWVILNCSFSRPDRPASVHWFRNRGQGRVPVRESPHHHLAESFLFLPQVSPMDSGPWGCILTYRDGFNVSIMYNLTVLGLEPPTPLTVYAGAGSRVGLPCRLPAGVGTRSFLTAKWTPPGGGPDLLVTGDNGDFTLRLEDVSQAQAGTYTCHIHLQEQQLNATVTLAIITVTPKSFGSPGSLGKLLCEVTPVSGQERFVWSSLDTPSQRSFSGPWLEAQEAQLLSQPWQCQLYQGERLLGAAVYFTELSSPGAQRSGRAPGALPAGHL

B1: ch7F1嵌合抗体 (antibody, human IgG4, V domains shown)
VH: EVQLVESGPGLVAPSQSLSITCTVSGFSLTDYAVSWIRQPPGKGLEWLGVVWGDGSTNYHSALISRLIITRDNSKRQVFLKLNSLQTDDTATYYCAKGGGGMDYWGQGTSVTVSS
VL: DIVLSQSPAILSASPGEKVTVTCRASSSVSYMHWFQQKPGSSPKPWIYATSNLASGVPVRFSGSGSGTSYSLTISRVEAEDAATYYCQHYNTNPPTWTFGGGSKLEIK
B2: ch4C8嵌合抗体 (antibody, human IgG4, V domains shown)
VH: EVQLVESGGGLVKIGGSLKLSCAGSGFTFSNYAMSWVRQTPEKRLEWVATITYGTTYTFYSDNVKGRFTISRDNAKNNLSLQMSHLKSEDTAMYYCTRGEYGSSFAYWGQGTLVTVSA
VL: DIVMTQSQKFMSTSVGDRVSITCKASQNVRTAVAWYQQKPGQSPKALIYLASNRHTGVPDRFTGSGSETDFTLTINNVQSEDLADYFCLQHWNYPLTFGGGTKLEIK
B3: ch3A10嵌合抗体 (antibody, human IgG4, V domains shown)
VH: EVQLQQSGAELVRPGASVKLSCTASGFNIKDDYMHWMKQRPEQGLEWIGWIDPENGETEYASKFQGKATITADTYSNTVYLQFSSLTSEDTGVYYCTIFDYWGQGTSLTVSS
VL: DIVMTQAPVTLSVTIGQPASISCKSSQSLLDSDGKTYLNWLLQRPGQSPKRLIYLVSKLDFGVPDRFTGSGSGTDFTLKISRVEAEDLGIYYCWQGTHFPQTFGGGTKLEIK
B4: ch7C5嵌合抗体 (antibody, V domains shown)
VH: EVQLQQSGAELARPGASVKLSCKASGYTFTSYGISWVKQRTGQGLEWIGEIYPRSDNTYYNGKFKGKATLTADKSSSTAYMELRSLTSEDSAVFFCARRAFYYYGSNYYAMDYWGQGTSVTVSS
VL: DVLMTQTPLFLPVSLGDQASISCRSSQSIVHSNGDTYLEWYLRKPGQSPKLLIFKVSNRFSGVPDRFSGSGSGTDFTLKISRVEAEDLGVYYCFQGSHVPWTFGGGTKLEIK
B5: ch10B4嵌合抗体 (antibody, human IgG4, V domains shown)
VH: B4 VH with T28S, S31N, V37M, S55G, D56G, K74Q, F94Y, Y104F
VL: B4 VL with L3V, R43Q, F54Y, E110A
B6: ch7F10嵌合抗体 (antibody, human IgG4, V domains shown)
VH: EVKLMESGAELVKPGASVKLSCKVSGVNIKDDYMHWVKQRTEQGLEWIGRIDPEDVETKYDPKFQGKATITSDTSSNTGYLQLSSLTSEDTAVYYCARSFYSNYVNYFDQWGQGTTLTVSS
VL: DIVMTQAPKSMSMSVGERVTLSCKASENVGTYVSWFQQKPEQSPKLLIYGASNRYTGVPDRFTGSGSATDFTLTISSVQAEDLADYHCGQSYSYPYTFGGGTKLEIK

biological target: T1, hLAG-3-mFc融合蛋白; assay: FACS competition: blocking of hLAG-3-mFc (2 ug/ml) binding to HLA on 293/rhHLA cells

Row | Binder | IC50
1 | B1 | 11.5 µg/mL
2 | B2 | 1.28 µg/mL
3 | B3 | 3.33 µg/mL
4 | B4 | 1.87 µg/mL
5 | B5 | 2 µg/mL
6 | B6 | 1.21 µg/mL

biological target: T1, hLAG-3-mFc融合蛋白; assay: BLI (ForteBio Octet QKe), antibody captured on AHC probe, hLAG-3-mFc 60 nM in solution, 1:1 fit

Row | Binder | Kd
7 | B1 | 5.52 nM
8 | B2 | 0.427 nM
9 | B3 | 0.128 nM
10 | B4 | 0.365 nM
11 | B5 | 0.0884 nM
12 | B6 | 0.117 nM
